In publication PMC10515491, “Intrinsically Disordered Flanking Regions Increase the Affinity of a Transcriptional Coactivator Interaction across Vertebrates” (Biochemistry, 2023):

T1: H. sapiens NCOA1 N-CID-C (H_sapiens_NCOA1_N-CID-C_885-1004) (H. sapiens, UniProt Q15788 885-1004)
T1 construct: Gly-Ser remains at the N-terminus after thrombin cleavage; also called CID with flanking regions; Src1; not shown: His6, N-terminal, cleaved; lipo domain, N-terminal, cleaved
T1 sequence: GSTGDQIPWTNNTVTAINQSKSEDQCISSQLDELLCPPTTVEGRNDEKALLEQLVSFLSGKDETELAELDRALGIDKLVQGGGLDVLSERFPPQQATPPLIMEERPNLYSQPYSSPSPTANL

T2: D. rerio NCBD (nuclear coactivator binding domain of CBP), Trp variant (D. rerio)
T2 chain: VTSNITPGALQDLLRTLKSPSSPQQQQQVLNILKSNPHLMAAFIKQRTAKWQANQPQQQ

T3: S. purpuratus NCOA N-CID-C (CID with N- and C-terminal flanking regions) (S. purpuratus, UniProt A0A7M7N2F3 1037-1156)
T3 construct: Gly-Ser remains at the N-terminus after thrombin cleavage; the Uniprot entry W4YZZ7 was withdrawn; annotated in NCBI as neurogenic protein mastermind; also called long version; source: expression construct ordered from Genscript; not shown: 6 His-tagged lipo domain, N-terminal, cleaved
T3 sequence: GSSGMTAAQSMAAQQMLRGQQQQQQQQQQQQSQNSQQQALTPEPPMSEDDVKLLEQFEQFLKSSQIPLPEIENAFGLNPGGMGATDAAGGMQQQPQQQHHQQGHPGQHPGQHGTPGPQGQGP

T4: C. milii NCBD (nuclear coactivator binding domain of CBP), Trp variant, first four residues truncated (C. milii)
T4 chain: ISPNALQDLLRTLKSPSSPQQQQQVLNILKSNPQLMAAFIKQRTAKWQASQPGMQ

B1: H. sapiens CBP NCBD domain, Trp variant (H_sapiens_NCBD 2058-2116, Tyr2108 to Trp) (domain or fragment)
chain: GSPPRSISPSALQDLLRTLKSPSSPQQQQQVLNILKSNPQLMAAFIKQRTAKWVANQPGMQ
notes: Gly-Ser remains at the N-terminus after thrombin cleavage; Trp introduced at Tyr2108 for the kinetic studies; not shown: His6, N-terminal, cleaved; lipo domain, N-terminal, cleaved
B2: D. rerio NCOA1 N-CID-C (CID with N- and C-terminal flanking regions) (domain or fragment)
chain: GSEPMTFDNSLANQTQAPLSSPQEQCVPCPLDEMLCPPTTPEGRNDEKALLEQLVTFLSHTDESELAELDRALGIDKIVQSGCLEPVTQTPFPQSQPPTPVPLDPKLPSYPSQFPTSPSQFP
B3: H. sapiens NCOA1 CID (H_sapiens_NCOA1_CID_924-965) (domain or fragment)
chain: GSEGRNDEKALLEQLVSFLSGKDETELAELDRALGIDKLVQGGG
notes: Gly-Ser remains at the N-terminus after thrombin cleavage; also called Src1; not shown: His6, N-terminal, cleaved; lipo domain, N-terminal, cleaved
B4: S. purpuratus NCBD (nuclear coactivator binding domain of CBP), wild type (domain or fragment)
chain: GSQRNNAPQQALQQLLQTLKSPHSPQQQKQVLTILKSNPQLMAAFIKQRSEHQQRMQQQQQ
notes: Gly-Ser remains at the N-terminus after thrombin cleavage; CBP, S. purpuratus (purple sea urchin), NCBD domain, residues 2316-2374 of Uniprot A0A7M7HNR9; the Trp variant is told only for the stopped-flow experiments; source: expression construct ordered from Genscript; not shown: 6 His-tagged lipo domain, N-terminal, cleaved
B5: H. sapiens NCOA1 N-CID-C (CID with N- and C-terminal flanking regions) (domain or fragment)
chain: T1 sequence
notes: Gly-Ser remains at the N-terminus after thrombin cleavage; also called NCOA1 (Src1); source: expression construct ordered from Genscript; not shown: 6 His-tagged lipo domain, N-terminal, cleaved
B6: D. rerio NCOA3 N-CID-C (CID with N- and C-terminal flanking regions) (domain or fragment)
chain: GSPPQSPSWPDSGMGMEGPPSANRLPINSPLDELLAPPSTSEGQSDERALLDQLDSLLNNTDVIALEEIDRALGIPDLINQGHSSDQPPPSDPFSGPCLGPDSSMGMEPPKAMYGQGYPGPP
B7: D. rerio NCOA2 N-CID-C (CID with N- and C-terminal flanking regions) (domain or fragment)
chain: GPGSPPNQTAPWPDSVMPIEPVPFGNQSSSMYGGSQEDVLCPPASEGPADEGALLSQLYSALKDFDGLEEIDRALGIPALVGQAQPVEQDQFPGQDPSMMMDQKPPMYGQQQYASSPANMQQAG
B8: C. milii NCOA3 N-CID-C (CID with N- and C-terminal flanking regions) (domain or fragment)
chain: QTTSWSDNVLQMEQVHSGGQGRQPFGGSLDDLLCPPTTAEAQSDEKALLDQLDTLLSNADEMGLEEIDRALGIPDLISQVQPLEAHADQFSVQDTALMLEQKAMYGQQFNSQAGPMQGCY

How the values were obtained:
[1] = target: S. purpuratus NCBD (nuclear coactivator binding domain of CBP), wild type (S. purpuratus); test: ITC; MicroCal iTC200, 25 °C, 20 mM sodium phosphate pH 7.40, 150 mM NaCl
[2] = target: C. milii CBP NCBD domain, Trp variant (C_milli_NCBD 2031-2089) (Callorhinchus milii); test: stopped-flow spectroscopy; Trp variant of NCBD of the same species mixed with CID or N-CID-C; kon from the slope of kobs against CID concentration; koff from displacement of the complex by an excess of wild-type NCBD (average of three experiments); Kd = koff/kon; 20 mM sodium phosphate pH 7.40, 150 mM NaCl, 4 °C; double exponential fit for human and C. milii NCOA3, the high kobs used for Kd
[3] = target: T1, H. sapiens NCOA1 N-CID-C …; test: as above; settings: both partners purified
[4] = target: T2, D. rerio NCBD (nuclear coactivator …)
[5] = target: D. rerio CBP NCBD domain, Trp variant (D_rerio_NCBD 2064-2122) (Danio rerio); test: stopped-flow spectroscopy; Trp variant of NCBD of the same species mixed with CID or N-CID-C; kon from the slope of kobs against CID concentration; koff from displacement of the complex by an excess of wild-type NCBD (average of three experiments); Kd = koff/kon; 20 mM sodium phosphate pH 7.40, 150 mM NaCl, 4 °C; double exponential fit for human and C. milii NCOA3, the high kobs used for Kd
[6] = target: H. sapiens NCBD (nuclear coactivator binding domain of CBP), Trp variant (H. sapiens, UniProt Q92793 2058-2116, a Trp was introduced at the position corresponding to Tyr2108 in human NCBD)
[7] = target: B1; test: stopped-flow spectroscopy; Trp variant of NCBD of the same species mixed with CID or N-CID-C; kon from the slope of kobs against CID concentration; koff from displacement of the complex by an excess of wild-type NCBD (average of three experiments); Kd = koff/kon; 20 mM sodium phosphate pH 7.40, 150 mM NaCl, 4 °C; double exponential fit for human and C. milii NCOA3, the high kobs used for Kd; settings: both partners purified
[8] = target: T3, S. purpuratus NCOA N-CID-C (CID with N- …); test: ITC; MicroCal iTC200, 25 °C, 20 mM sodium phosphate pH 7.40, 150 mM NaCl; settings: both partners purified
[9] = target: T5, H. sapiens NCBD (nuclear coactivator binding domain of CBP), Trp variant (H. sapiens, UniProt Q92793 2058-2116, a Trp was introduced at the position corresponding to Tyr2108 in human NCBD); test: stopped-flow spectroscopy; Trp variant of NCBD mixed with CID at varied concentration; kon from the slope of kobs, koff from displacement with excess wild-type NCBD, Kd = koff/kon; 20 mM sodium phosphate pH 7.40, 150 mM NaCl, 4 °C; settings: both partners purified
T5 construct: Gly-Ser remains at the N-terminus after thrombin cleavage; also called human NCBD; Trp variant of NCBD; source: expression construct ordered from Genscript; not shown: 6 His-tagged lipo domain, N-terminal, cleaved

[10] = target: T4, C. milii NCBD (nuclear coactivator …)

Kd [4]	Kd [5]	koff [5]	Molecule	also measured
–	–	–	S. purpuratus NCOA CID (minimal region) (domain or fragment)	Kd [1]: 5 µM
–	–	–	C. milii NCOA3 CID (C_milli_NCOA3_CID_1076-1117) (domain or fragment)	Kd [2]: 260 nM; koff [2]: 6.53 s⁻¹
–	–	–	C. milii NCOA3 N-CID-C (C_milli_NCOA3_N-CID-C_1037-1156) (domain or fragment)	Kd [2]: 88 nM; koff [2]: 3.78 s⁻¹
–	–	–	B1	Kd [3]: 6.02 nM; koff [3]: 0.436 ± 0.0476 s⁻¹
44 nM	44.1 nM	1.54 s⁻¹	GSEGRNDEKALLEQLVTFLSHTDESELAELDRALGIDKIVQSGC (domain or fragment) [D. rerio NCOA1 CID (minimal region)]	–
300 nM	300 nM	7.29 s⁻¹	GSEGQSDERALLDQLDSLLNNTDVIALEEIDRALGIPDLINQGH (domain or fragment) [D. rerio NCOA3 CID (minimal region)]	–
15 nM	14.7 nM	0.716 s⁻¹	B2	–
–	–	–	B3	Kd [6]: 56 nM; Kd [7]: 55.7 nM; koff [7]: 1.59 ± 0.153 s⁻¹
–	–	–	B4	Kd [8]: 8 µM
–	–	–	B5	Kd [6]: 6 nM; fold increase in affinity with flanking regions against the CID without them [9]: 9 fold
170 nM	168 nM	5.34 s⁻¹	B6	–
–	–	–	EAQSDEKALLDQLDTLLSNADEMGLEEIDRALGIPDLISQVQ (domain or fragment) [C. milii NCOA3 CID (minimal region)]	Kd [10]: 260 nM
82 nM	81.9 nM	3.51 s⁻¹	B7	–
–	–	–	B8	Kd [10]: 88 nM
150 nM	146 nM	5.06 s⁻¹	GPGSASEGPADEGALLSQLYSALKDFDGLEEIDRALGIPALVGQAQ (domain or fragment) [D. rerio NCOA2 CID (minimal region)]	–
